B1: 374_C03 (antibody, V domains shown)
VH: EVQLLESGGGLVQPGGSLRLSCAASGFTFDSYSMNWVRQAPGKGLEWVSGINYNSGYTSYADSVKGRFTISRDNSKNTLYLQMNSLRAEDTAVYYCARSANWHDTALDYWGQGTLVTVSS
VL: DIQMTQSPSSLSASVGDRVTITCRASQSILTYLNWYQQKPGKAPKLLIYAATSRASGVPSRFSGSGSGTDFTLTISSLQPEDFATYYCQQSYDSPLTFGGGTKVEIK
B2: 374_D08 (antibody, V domains shown)
VH: EVQLLESGGGLVQPGGSLRLSCAASGFTFDSYGMNWVRQAPGKGLEWVSGINYNSGYTGYADSVKGRFTISRDNSKNTLYLQMNSLRAEDTAVYYCARSANWHDTHLDYWGQGTLVTVSS
VL: DIQMTQSPSSLSASVGDRVTITCRASQSILTYLNWYQQKPGKAPKLLIYAATSRHSGVPSRFSGSGSGTDFTLTISSLQPEDFATYYCQQSYESPLTFGGGTKVEIK
B3: 374_C06 (antibody, V domains shown)
VH: EVQLLESGGGLVQPGGSLRLSCAASGFTFDDYSMNWVRQAPGKGLEWVSSINYNSGYKGYADSVKGRFTISRDNSKNTLYLQMNSLRAEDTAVYYCARSANWHDTALDYWGQGTLVTVSS
VL: DIQMTQSPSSLSASVGDRVTITCRASQSILTYVNWYQQKPGKAPKLLIYAATSRASGVPSRFSGSGSGTDFTLTISSLQPEDFATYYCQQSYNSPLTFGGGTKVEIK
B4: 374_B12 (antibody, V domains shown)
VH: EVQLLESGGGLVQPGGSLRLSCAASGFTFDSYSMNWVRQAPGKGLEWVAGINYNGGYTGYADSVKGRFTISRDNSKNTLYLQMNSLRAEDTAVYYCARSANWHDTHLDYWGQGTLVTVSS
VL: DIQMTQSPSSLSASVGDRVTITCRASQSISSYLNWYQQKPGKAPKLVIYAATSRASGVPSRFSGSGSGTDFTLTISSLQPEDFATYYCQQSYDNPLTFGGGTKVEIK
B5: 376_F06 (antibody, V domains shown)
VH: EVQLLESGGGLVQPGGSLRLSCAASGFTFSSYGMNWVRQAPGKGLEWVSGINYNGGYTGYADSVKGRFTISRDNSKNTLYLQMNSLRAEDTAVYYCARGANWHDTHLDYWGQGTLVTVSS
VL: DIQMTQSPSSLSASVGDRVTITCRASQSILTYVNWYQQKPGKAPKLVIYAATSRASGVPSRFSGSGSGTDFTLTISSLQPEDFATYYCQQSYETPLTFGGGTKVEIK
B6: 376_G06 (antibody, V domains shown)
VH: EVQLLESGGGLVQPGGSLRLSCAASGFTFSSYGMNWVRQAPGKGLEWVAGINYNGGYTGYADSVKGRFTISRDNSKNTLYLQMNSLRAEDTAVYYCARGANWHDTHLDYWGQGTLVTVSS
VL: DIQMTQSPSSLSASVGDRVTITCRASQSIVSYVNWYQQKPGKAPKLVIYAATSRASGVPSRFSGSGSGTDFTLTISSLQPEDFATYYCQQSYNSPLTFGGGTKVEIK
B7: 365_D10 (antibody, V domains shown)
VH: EVQLLESGGGLVQPGGSLRLSCAASGFTFSSYSMNWVRQAPGKGLEWVAGINYNGGYTGYADSVKGRFTISRDNSKNTLYLQMNSLRAEDTAVYYCARGATWHDTHLDYWGQGTLVTVSS
VL: DIQMTQSPSSLSASVGDRVTITCRASQSISTYLNWYQQKPGKAPKLLIYAATSRASGVPSRFSGSGSGTDFTLTISSLQPEDFATYYCQQSYESPLTFGGGTKVEIK
B8: 365_D02 (antibody, V domains shown)
VH: EVQLLESGGGLVQPGGSLRLSCAASGFTFSSYSMHWVRQAPGKGLEWVASINYNGGYTSYADSVKGRFTISRDNSKNTLYLQMNSLRAEDTAVYYCARGATWHDTHLDYWGQGTLVTVSS
VL: DIQMTQSPSSLSASVGDRVTITCRASQSIVTYLNWYQQKPGKAPKLLIYAATSLASGVPSRFSGSGSGTDFTLTISSLQPEDFATYYCQQSYDNPLTFGGGTKVEIK
B9: 376_H11 (antibody, V domains shown)
VH: EVQLLESGGGLVQPGGSLRLSCAASGFTFDSYSMNWVRQAPGKGLEWVSNINYNGGYTGYADSVKGRFTISRDNSKNTLYLQMNSLRAEDTAVYYCARGANWHDTALDYWGQGTLVTVSS
VL: DIQMTQSPSSLSASVGDRVTITCRASQSISRYLNWYQQKPGKAPKLLIYAVTSLASGVPSRFSGSGSGTDFTLTISSLQPEDFATYYCQQSYESPLTFGGGTKVEIK
B10: 365_C02 (antibody, V domains shown)
VH: EVQLLESGGGLVQPGGSLRLSCAASGFTFDSYSMNWVRQAPGKGLEWVSNINYNGGYKGYADSVKGRFTISRDNSKNTLYLQMNSLRAEDTAVYYCARGATWHDTHLDYWGQGTLVTVSS
VL: DIQMTQSPSSLSASVGDRVTITCRASQSISTYLNWYQQKPGKAPKLVIYAATSRHSGVPSRFSGSGSGTDFTLTISSLQPEDFATYYCQQSYENPLTFGGGTKVEIK
B11: 376_G05 (antibody, V domains shown)
VH: EVQLLESGGGLVQPGGSLRLSCAASGFTFSSYSMNWVRQAPGKGLEWVAGINYNGGYTSYADSVKGRFTISRDNSKNTLYLQMNSLRAEDTAVYYCARGANWHDTALDYWGQGTLVTVSS
VL: DIQMTQSPSSLSASVGDRVTITCRASQSIISYVNWYQQKPGKAPKLVIYAATSRASGVPSRFSGSGSGTDFTLTISSLQPEDFATYYCQQSYESPLTFGGGTKVEIK
B12: 365_A08 (antibody, V domains shown)
VH: EVQLLESGGGLVQPGGSLRLSCAASGFTFSSYSMNWVRQAPGKGLEWVASINYNGGYKSYADSVKGRFTISRDNSKNTLYLQMNSLRAEDTAVYYCARGATWHDTHLDYWGQGTLVTVSS
VL: DIQMTQSPSSLSASVGDRVTITCRASQSIITYLNWYQQKPGKAPKLVIYAATSRASGVPSRFSGSGSGTDFTLTISSLQPEDFATYYCQQSDNTPLTFGGGTKVEIK
B13: 376_H04 (antibody, V domains shown)
VH: EVQLLESGGGLVQPGGSLRLSCAASGFTFSSYSMNWVRQAPGKGLEWVAGINYNGGYKGYADSVKGRFTISRDNSKNTLYLQMNSLRAEDTAVYYCARGANWHDTALDYWGQGTLVTVSS
VL: DIQMTQSPSSLSASVGDRVTITCRASQSILTYVNWYQQKPGKAPKLVIYAATSRASGVPSRFSGSGSGTDFTLTISSLQPEDFATYYCQQSYDLPLTFGGGTKVEIK
B14: 365_C04 (antibody, V domains shown)
VH: EVQLLESGGGLVQPGGSLRLSCAASGFTFDSYSMNWVRQAPGKGLEWVANINYNGGYKGYADSVKGRFTISRDNSKNTLYLQMNSLRAEDTAVYYCARGATWHDTHLDYWGQGTLVTVSS
VL: DIQMTQSPSSLSASVGDRVTITCRASQSILTYLNWYQQKPGKAPKLVIYAATSLASGVPSRFSGSGSGTDFTLTISSLQPEDFATYYCQQSYDTPLTFGGGTKVEIK
B15: 376_G10 (antibody, V domains shown)
VH: EVQLLESGGGLVQPGGSLRLSCAASGFTFDSYGMNWVRQAPGKGLEWVAGINYNGGYTSYADSVKGRFTISRDNSKNTLYLQMNSLRAEDTAVYYCARGANWHDTALDYWGQGTLVTVSS
VL: DIQMTQSPSSLSASVGDRVTITCRASQSILSYVNWYQQKPGKAPKLLIYAATSRASGVPSRFSGSGSGTDFTLTISSLQPEDFATYYCQQSYESPLTFGGGTKVEIK

The first experiment has as its target Human Fc (human). Description: ELISA, negative control. (In general: ELISA stands for enzyme-linked immunosorbent assay.)
In turn, B1 came in with an optical density of 0.208 OD.
Still for that read-out and setting: for B2 the value was 0.201 OD.
Still for that read-out and setting: for B3 the value was 0.18 OD; for B4, 0.257 OD.

The target in the next experiment is Human Fc (human). Description: ELISA; negative control.
B5 registered an optical density of 0.284 OD.
B6 had an optical density of 0.267 OD.
In turn, B7 yielded an optical density of 0.641 OD.
The same measure, in the same setting: the same measure for B8: 0.486 OD; for B9: 0.325 OD.
Molecule B10 displayed an optical density of 0.362 OD.
As for B11, the optical density stood at 0.252 OD.
B12 showed an optical density of 0.256 OD.
Molecule B13 showed an optical density of 0.34 OD.
Still for that read-out and setting: the same measure for B14: 0.305 OD; for B15: 0.321 OD.
